From the supplement of paper PMC9170038

Tested on: MS2 coat protein
Assay: apparent KD of MS2 coat protein; designed switch direction (-1 OFF switch, 1 ON switch): -1; higher = weaker reporter binding
Outline: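 The reported apparent KD is a per-design median over clusters, from curve fits of normalised cluster fluorescence. Protein titrations used SNAP-549-labelled MS2 coat protein, doubled from 0.7 or 1.5 nM to 3 µM, in Tris-HCl pH 7.5 buffer with KCl, MgCl2, BSA, DTT, tRNA and Tween-20, with no input, 200 uM small-molecule ligand, or an oligonucleotide input. The RNA switches were transcribed on Illumina chips by stalled E. coli RNA polymerase.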

[1] = Eterna round: R95, input ligand: microRNA oligo, concentration not stated
[2] = input ligand: microRNA oligo, concentration not stated
[3] = Eterna round: R95, input ligand: FMN 200 uM
[4] = Eterna round: R95, input ligand: none

CUUUAGUGAGGAUAUCAGUAGUAGAACAAUAGUACUACUACUGAGAAGGCACAUGAGGAUCACCCAUGUUCCUC [Fiskers Ex 4 Super stable 44 mod 8] (puzzle: Exclusion 4)
apparent KD of MS2 coat protein [1]: 34.5 nM

AGCAGACGAGGAUAUAAACGAUAUAACAUGAGGAUCACCCAUGUACGAUCGAAUGAUCGUUUAGAAGGCGUCUGCU [E5/10-A2] (Eterna round: R97, puzzle: Exclusion 5)
apparent KD of MS2 coat protein (input ligand: FMN 200 uM): 17.3 nM | apparent KD of MS2 coat protein (input ligand: none): 15.1 nM

UCCACACAUGAGGAUCACCCAUGUCAGGAUAUCUUUAGGGACUAUGGUUAUUCCUAAUAGAGAAGGGACAUAUU [EX1 B.27] (Eterna round: R97, puzzle: Exclusion 1)
apparent KD of MS2 coat protein (input ligand: FMN 200 uM): 152 nM | apparent KD of MS2 coat protein (input ligand: none): 37.1 nM

GUACUACAUGAGGAUCACCCAUGUCAGGAUAUUUGAAUUUCAUCAAAAGAUGAAAUUCGGAGAAGGGACAGUAC [Omei Ex1 A7] (Eterna round: R97, puzzle: Exclusion 1)
apparent KD of MS2 coat protein (input ligand: FMN 200 uM): 31.1 nM | apparent KD of MS2 coat protein (input ligand: none): 21.7 nM

CCAUAUAACACAGGAUAUCAUCGCAACUGACGUUGAGAAGGGUGACAUGAGGAUCACCCAUGUGAUUUCUCAAUAUUAUACAUC [Prohibition 81 - Jieux - Exclusion NG 1] (Eterna round: R96, puzzle: Exclusion NG 1)
apparent KD of MS2 coat protein (input ligand: FMN 200 uM): 1040 nM | apparent KD of MS2 coat protein [2]: 661 nM | apparent KD of MS2 coat protein (input ligand: none): 1110 nM

UACAUGAGGAUCACCCAUGUUUUGUCGUGUAUGGUAUUUAUCUAGGAUAUCAAUUUACUUAUUUAUGAGAAGGAGAAUAUUAAU [JMF's solution 19] (Eterna round: R96, puzzle: Exclusion NG 3)
apparent KD of MS2 coat protein [2]: 26.8 nM

AACAGAUGAGGAUAUACACGAGGAGUGAUACCGUAUGCCAGACAUGAGGAUCACCCAUGUAGAAGGCAUAAUAG [Celeated] (Eterna round: R97, puzzle: Exclusion 2)
apparent KD of MS2 coat protein (input ligand: FMN 200 uM): 18.9 nM | apparent KD of MS2 coat protein (input ligand: none): 12.4 nM

CAGCAGAGAGGAUAUACUUGAGGAUCACCCAAGUGACACCGCCUGGUGCGAACUUGAAGUAGAAGGUUCGGCUA [Entema] (Eterna round: R97, puzzle: Exclusion 3)
apparent KD of MS2 coat protein (input ligand: FMN 200 uM): 24.7 nM | apparent KD of MS2 coat protein (input ligand: none): 19.7 nM

AUGAAGUAAGGAUAUUAUCGCGGGCAGAGGCCCAGCUCAUAUGAGAAGGUACAUGAGGAUCACCCAUGUCCUCU [Eternabot (L2) Solution 72] (Eterna round: R97, puzzle: Exclusion 4)
apparent KD of MS2 coat protein (input ligand: FMN 200 uM): 25.9 nM | apparent KD of MS2 coat protein (input ligand: none): 30 nM

CCGACCCGAGGAUAUUGUACUGCUGACAUGAGGAUCACCCAUGUAUGUUAACUCGGCCGACGAGAAGGCGGCGACA [BotMod 3 - Jieux - Exclusion 5] (Eterna round: R97, puzzle: Exclusion 5)
apparent KD of MS2 coat protein (input ligand: FMN 200 uM): 18.4 nM | apparent KD of MS2 coat protein (input ligand: none): 22.1 nM

GUCCCGGAAGGAUAUGCAGAGCACGAUCCCGUUAAAGGGCCACAUGAGGAUCACCCAUGUAGAAGGUCCAGGGC [EX2 B.21] (Eterna round: R97, puzzle: Exclusion 2)
apparent KD of MS2 coat protein (input ligand: FMN 200 uM): 32.8 nM | apparent KD of MS2 coat protein (input ligand: none): 13.1 nM

UGCAUGCUAGGAUAUACGAAACAUUAGGGUUCUUCGUAUGAACAUGAGGAUCACCCAUGUAGAAGGAGCGUGCU [Mod9 of JL-ex2-2.15 mat747 mod] (puzzle: Exclusion 2)
apparent KD of MS2 coat protein [1]: 31.1 nM

AGAGAAUAGUCAGGAUAUGAGAAUAGAUAGAGCUCAGAAGGGACACAUGAGGAUCACCCAUGUGAAGUCUUGAGGCUGCGUGGA [Prohibition 20 - Jieux - Exclusion NG 1] (Eterna round: R96, puzzle: Exclusion NG 1)
apparent KD of MS2 coat protein [2]: 11.3 nM

ACUCAGUGAGGAUAUCGCCAGAGAGCCGCAACAGCUCCUGAUGAGAAGGCACAUGAGGAUCACCCAUGUAAGCA [EX4 C.19] (Eterna round: R97, puzzle: Exclusion 4)
apparent KD of MS2 coat protein (input ligand: FMN 200 uM): 321 nM | apparent KD of MS2 coat protein (input ligand: none): 116 nM

GCACGACAUCAGGAUAUGACUAGCUGCGGCUAGUCAGAAGGGAUGACAUGAGGAUCACCCAUGUGAUCACGUGC [E6/2-B3] (Eterna round: R97, puzzle: Exclusion 6)
apparent KD of MS2 coat protein (input ligand: FMN 200 uM): 114 nM | apparent KD of MS2 coat protein (input ligand: none): 85.3 nM

CCUCGAAGGCAAGGAUAUCCUACAUUGUUCUGGCCCGGGCAUGCUACAUGAGGAUCACCCAUGUGGGAGAAGGUGCGCCACGGC [Design 30] (Eterna round: R96, puzzle: Exclusion NG 2)
apparent KD of MS2 coat protein (input ligand: FMN 200 uM): 56.7 nM | apparent KD of MS2 coat protein [2]: 45 nM | apparent KD of MS2 coat protein (input ligand: none): 58.3 nM

UCUCUUGGGCAAGGAUAUCCUGCGCGGUUCCGGUUCGUGUCUGUCACAUGAGGAUCACCCAUGUGGGAGAAGGUGCCUGCGGUC [Design 77] (Eterna round: R96, puzzle: Exclusion NG 2)
apparent KD of MS2 coat protein (input ligand: FMN 200 uM): 24.5 nM | apparent KD of MS2 coat protein [2]: 12 nM | apparent KD of MS2 coat protein (input ligand: none): 16.7 nM

UCGCGCCUAGGAUAUAUAAGGACUUUCUAGUAUGUUGCGAAACAUGAGGAUCACCCAUGUAGAAGGAGGUAGUG [Eternabot (L2) Solution 89] (Eterna round: R97, puzzle: Exclusion 2)
apparent KD of MS2 coat protein (input ligand: FMN 200 uM): 222 nM | apparent KD of MS2 coat protein (input ligand: none): 77.3 nM

UAAAGUAUAUAGGAUAUCUAGCUGGAAACAGCUAGAGAAGGAUGUACAUGAGGAUCACCCAUGUAGAUCUCAAA [Ex6/15-A2] (Eterna round: R97, puzzle: Exclusion 6)
apparent KD of MS2 coat protein (input ligand: FMN 200 uM): 19 nM | apparent KD of MS2 coat protein (input ligand: none): 16.2 nM

AGUCCAUAUGUUAGGAUAUGCAACUAGCCAUUGUAGCAGAAGGAACAUGAGGAUCACCCAUGUACAAAGACCCG [Biinvees] (puzzle: Brourd's mod of Exclusion 4)
apparent KD of MS2 coat protein [3]: 33.6 nM | apparent KD of MS2 coat protein [1]: 23.6 nM | apparent KD of MS2 coat protein [4]: 18.2 nM

UUAAACGCAGGAUAUACAUUUUUUUUAUUAUCCUCAUAAAUACAUGAGGAUCACCCAUGUAGAAGGGCGAAAUU [Mat - Exclusion 2 - Mod of Hog - D87] (puzzle: Exclusion 2)
apparent KD of MS2 coat protein [1]: 144 nM

AGAAAUGCCCAUGGCCGCAAGCUCUUUGCUUGUCUUACCACAUGAGGAUCACCCAUGUGACAUGGGCUCCUUAUAAU [Riquarge] (puzzle: Sensor v3, turn-off variant 2)
apparent KD of MS2 coat protein [3]: 13.9 nM | apparent KD of MS2 coat protein [1]: 9.77 nM | apparent KD of MS2 coat protein [4]: 12 nM

AAGCACGCGUAGGAUAUAAUCCAAACCUCGAGGUUAGAAGGACGCACAUGAGGAUCACCCAUGUUCCUAGCAUC [Eternabot (Original) Solution 19] (Eterna round: R97, puzzle: Exclusion 6)
apparent KD of MS2 coat protein (input ligand: FMN 200 uM): 20.7 nM | apparent KD of MS2 coat protein (input ligand: none): 17.1 nM

UCGAAAUCUAACAAGCCAUACAUGAGGAUCACCCAUGUGUUCGUCAUAGCGAUCCGACAUGAUGCUCGUCGAAAUAC [Eternabot (L2) Solution 48] (Eterna round: R97, puzzle: Sensor, turn-off variant 1)
apparent KD of MS2 coat protein (input ligand: FMN 200 uM): 448 nM | apparent KD of MS2 coat protein (input ligand: none): 745 nM

UAGAUGGCUCAGGAUAUUUGCCAACUAACUCGCGAAGAAGGGAGCACAUGAGGAUCACCCAUGUGAUCGAACGG [Rila] (puzzle: Exclusion 6)
apparent KD of MS2 coat protein [1]: 16.3 nM

CGAAAUGCCCGUGGCCACAAGCUUUUUGCUUGUCUUACUACAUGAGGAUCACCCAUGUACCAUGGGCUCCUGACCAU [Rixele] (puzzle: Sensor v3, turn-off variant 2)
apparent KD of MS2 coat protein [3]: 13.6 nM | apparent KD of MS2 coat protein [1]: 11.6 nM | apparent KD of MS2 coat protein [4]: 11.2 nM
